Laboratory results taken from the RNAGym collection of RNA variant scans (doi:10.7554/elife.80360).

B1: Hairpin Ribozyme (parent)
chain: GUCCUCUUUCACGUGCGCGUGAAAGAGAGAAGUGAACCAGAGAAACACACGUUGUGGUAUAUUACCUGGUA

Variants of: B1
Test: self-cleavage, relative activity (ratio to wild type); higher = more cleavage; co-transcriptional

Row | Variant | self-cleavage
1 | GUCCUCUUUCACGUGCACGUGAAAGAGAGAAGUGAACCAGAGAAACACACGUUGUGGAAUAUUACCUGGUA [G17A U58A] | 0.709
2 | GUCCUCUUUCACGUGCCCGUGAAAGAGAGAAGUGAACCAGAGAAAGACACGUUGUGGUAUAUUACCUGGUA [G17C C46G] | 0.074
3 | GUCCUCUUUCACGUGCCCGUGAAAGAGAGAAGUGAACCAGAGAAAAACACGUUGUGGUAUAUUACCUGGUA [G17C C46A] | 0.113
4 | GUCCUCUUUCACGUGCACGUGAAAGAGAGAAGUGAAACAGAGAAACACACGUUGUGGUAUAUUACCUGGUA [G17A C37A] | 0.251
5 | GUCCUCUUUCACGUGCACGUGAAAGAGAGAAGUGAACCAGAGAAACACACGUUGUGGUAUAUAACCUGGUA [G17A U63A] | 0.19
6 | GUCCUCUUUCACGUGCACGUGAAAGAGAGAAGUGAACCAGAGAAACACAUGUUGUGGUAUAUUACCUGGUA [G17A C50U] | 0.373
7 | GUCCUCUUUCACGUGCACGUGAAACAGAGAAGUGAACCAGAGAAACACACGUUGUGGUAUAUUACCUGGUA [G17A G25C] | 0.552
8 | GUCCUCUUUCACGUGCACGUGAAAAAGAGAAGUGAACCAGAGAAACACACGUUGUGGUAUAUUACCUGGUA [G17A G25A] | 0.587
9 | GUCCUCUUUCACGUGCACGUGAAAGAGAGAAGUAAACCAGAGAAACACACGUUGUGGUAUAUUACCUGGUA [G17A G34A] | 1.26
10 | GUCCUCUUUCACGUGCACGUGAAAGAGAGAAGUUAACCAGAGAAACACACGUUGUGGUAUAUUACCUGGUA [G17A G34U] | 0.967
11 | GUCCUCUUUCACGUGCACGUGAAAGAGAGAAGUCAACCAGAGAAACACACGUUGUGGUAUAUUACCUGGUA [G17A G34C] | 1.3
12 | GUCCUCUUUCACGUGCACGUGAAAGAGAGAAGUGAACCAGAGAAACACACGUUGUGGUAUAUUGCCUGGUA [G17A A64G] | 0.615
13 | GUCCUCUUUCACGUGCACGUGAAAGAGAGAAGUGAACCAGAGAAACACACGUUGUGGUAUAUUUCCUGGUA [G17A A64U] | 0.151
14 | GUCCUCUUUCACGUGCCCGUGGAAGAGAGAAGUGAACCAGAGAAACACACGUUGUGGUAUAUUACCUGGUA [G17C A22G] | 0.552
15 | GUCCUCUUUCACGUGCACGUGAAAGAUAGAAGUGAACCAGAGAAACACACGUUGUGGUAUAUUACCUGGUA [G17A G27U] | 0.324
16 | GUCCUCUUUCACGUGCACGUGAAAGAAAGAAGUGAACCAGAGAAACACACGUUGUGGUAUAUUACCUGGUA [G17A G27A] | 0.547
17 | GUCCUCUUUCACGUGCAGGUGAAAGAGAGAAGUGAACCAGAGAAACACACGUUGUGGUAUAUUACCUGGUA [G17A C18G] | 1.15
18 | GUCCUCUUUCACGUGCCCGUGAGAGAGAGAAGUGAACCAGAGAAACACACGUUGUGGUAUAUUACCUGGUA [G17C A23G] | 0.458
19 | GUCCUCUUUCACGUGCACGUGAAAGAGAGAAGUGAACCAGAGAAACACACGUUGUGGUAUAUUACAUGGUA [G17A C66A] | 0.26

Row | Variant | self-cleavage
20 | GUCCUCUUUCACGUGCACGUGAAAGAGAGAAGUGAACCAGAGAAACACACGUUGUGGUAUAUUACUUGGUA [G17A C66U] | 0.554
21 | GUCCUCUUUCACGUGCACGUGAAAGAGAGAAGUGAACCAGAUAAACACACGUUGUGGUAUAUUACCUGGUA [G17A G42U] | 0.273
22 | GUCCUCUUUCACGUGCACGUGAAAGAGAGAAGUGAACCAGAAAAACACACGUUGUGGUAUAUUACCUGGUA [G17A G42A] | 0.222
23 | GUCCUCUUUCACGUGCACGUGAAAGAGAGAAGUGAACCAGAGAAACACACGUUGUGGUGUAUUACCUGGUA [G17A A59G] | 0.205
24 | GUCCUCUUUCACGUGCCCGUGAAAGAGAGAAGUGUACCAGAGAAACACACGUUGUGGUAUAUUACCUGGUA [G17C A35U] | 0.44
25 | GUCCUCUUUCACGUGCCCGUGAAAGAGAGAAGUGAACAAGAGAAACACACGUUGUGGUAUAUUACCUGGUA [G17C C38A] | 0.199
26 | GUCCUCUUUCACGUGCACGUGAAAGAGAGAAGUGAACUAGAGAAACACACGUUGUGGUAUAUUACCUGGUA [G17A C38U] | 0.512
27 | GUCCUCUUUCACGUGCACGUGAAAGAGAGAAGUGAACAAGAGAAACACACGUUGUGGUAUAUUACCUGGUA [G17A C38A] | 0.169
28 | GUCCUCUUUCACGUGCCCGUGAAAGAGAGAAGUGAACCAGAGUAACACACGUUGUGGUAUAUUACCUGGUA [G17C A43U] | 0.0572
29 | GUCCUCUUUCACGUGCCCGUGAAAGAGAGAAGUGAACCCGAGAAACACACGUUGUGGUAUAUUACCUGGUA [G17C A39C] | 0.528
30 | GUCCUCUUUCACGUGCCCGUGAAAGAGAGAAGUGAACCUGAGAAACACACGUUGUGGUAUAUUACCUGGUA [G17C A39U] | 0.35
31 | GUCCUCUUUCACGUGCCCGUGAAUGAGAGAAGUGAACCAGAGAAACACACGUUGUGGUAUAUUACCUGGUA [G17C A24U] | 0.73
32 | GUCCUCUUUCACGUGCCCGUGAAGGAGAGAAGUGAACCAGAGAAACACACGUUGUGGUAUAUUACCUGGUA [G17C A24G] | 0.88
33 | GUCCUCUUUCACGUGCACGUGAAAGAGAGAAGUGAACCAGAGAAACACACGUUGUGGUAUAUUAACUGGUA [G17A C65A] | 0.86
34 | GUCCUCUUUCACGUGCACGUGAAAGAGAGAAGUGAACCAGAGAAACACACGUUGUGGUAUAUUAUCUGGUA [G17A C65U] | 0.31
35 | GUCCUCUUUCACGUGCACGUGAAAGAGAGAAGUGAACCAGAGAAACACACGUUGGGGUAUAUUACCUGGUA [G17A U55G] | 0.161
36 | GUCCUCUUUCACGUGCACGUGAAAGAGAGAAGUGAACCAGAGAAACACACGGUGUGGUAUAUUACCUGGUA [G17A U52G] | 0.982
37 | GUCCUCUUUCACGUGCACGUGAAAGAGAGAAGUGAACCAGAGAAACACACGCUGUGGUAUAUUACCUGGUA [G17A U52C] | 1.11
38 | GUCCUCUUUCACGUGCACGUGAAAGAGAGAAGUGAACCAGAGAAACACACAUUGUGGUAUAUUACCUGGUA [G17A G51A] | 1.06
